Where “and” joins values, the source holds several entries; their conditions need not be identical. Identical values can stand only once. Like-named read-outs stand apart in the source and are kept apart here. Blank lines part the entries; values can stand above or below the molecule they belong to.
Legend:
Assay in all cases: AUC
[1] = biological target: 22S protein of the mitotic apparatus, Arbacia punctulata (Arbacia punctulata)
[2] = biological target: 22S protein of the mitotic apparatus, Arbacia punctulata (Arbacia punctulata); remark: listed apart in the source
[3] = biological target: 22S protein of the mitotic apparatus, Arbacia punctulata (Arbacia punctulata); remark: listed apart in the source
[4] = biological target: 22S protein of the mitotic apparatus, Arbacia punctulata (Arbacia punctulata); remark: listed apart in the source
[5] = biological target: 22S protein of the mitotic apparatus, Arbacia punctulata (Arbacia punctulata); remark: listed apart in the source
[6] = biological target: 22S protein of the mitotic apparatus, Arbacia punctulata (Arbacia punctulata); remark: listed apart in the source
[7] = biological target: 22S protein of the mitotic apparatus, Strongylocentrotus droebachiensis (Strongylocentrotus droebachiensis)
[8] = biological target: 22S protein of the mitotic apparatus, Strongylocentrotus droebachiensis (Strongylocentrotus droebachiensis); remark: listed apart in the source
[9] = biological target: 22S protein of the mitotic apparatus, Strongylocentrotus droebachiensis (Strongylocentrotus droebachiensis); remark: listed apart in the source
AUC [10] = biological target: the molecule itself
AUC [11] = biological target: the molecule itself; remark: listed apart in the source

- stoichiometry N [1]: 2
- stoichiometry N [2]: 2
- stoichiometry N [3]: 2
- stoichiometry N [4]: 4 and 2 and 6
- stoichiometry N [5]: 8
- stoichiometry N [6]: 6 and 4 and 2
Molecule: 22S protein of the mitotic apparatus, Arbacia punctulata (natural protein)

- stoichiometry N [7]: 2
- stoichiometry N [8]: 8
- stoichiometry N [9]: 2
Molecule: 22S protein of the mitotic apparatus, Strongylocentrotus droebachiensis (natural protein)

B1: 22S protein of the mitotic apparatus, Strongylocentrotus purpuratus (natural protein)
chain: VPSGSLGSRPGTCPPQPSDQVMIEATRCSYVYGLTWDWNCNSQGQENYKCCQYENDIRICVPPIPADVDEEVGVEQPSQSVDQVRQAIQKTQDFIRKVGLYPAPDQRRRTTPTPDTVRWCVSSRCQMTKCQRMVSEFTYSPNMVPRKQWKCTQATSQEQCMFWIEQGWADIMTTREGQVYSANTTFNLKPIAYETTINDQQPEIQILKHYQNVTFALKSSRLVNPNTFSELRDKTTCHAGIDMPDFDMPASFADPVCNLIKEGVIPVTGNYIESFSDFVQESCVPGVLNMTYNKNGTYPLSLVTLCEDQQYKYSGIKGALSCLESGKGQVTFVDQKVIKKIMSDPNVRDNFQVVCRDESRPLDEEIFTDVTCHVGHTARPTIFINKNNTQQKETDIKTLVVKMMELYGNTDRDVNFNIFDSSVYDCGKCQMTGKPLNKNLIFLEESNTMKIVDDSKVYAGEVYAAYNVCSKLVPKPRAKICVTNVTEYEACRRFKGIAENIPEVKKVAWGCVLANSSIECMQAVHNNTADLFKANPMETFIAGKEFLLDPLMSVHRNDSVTMNHTYTRTLAVIKRSSLAKFPGLLSVPEGQPKYIKDLWKLKICSAGLKNFSAFHSPIGYLLANGTIPRIGSVFESVNRYFQATCVPEIEPETWRLDSDLLLGREMNWGFSSLNMYNFTGQEWLLWNTPATWNFLTYNRKVSTGLDIKKLIELKKQNLTSHIFNQNLSSPRNVELLDDLVGVEGISDLVKGVQDTIGPEGKQKMNMLRDRLSNSFPNFEAVRTLSDKVDIVNKMKDARQQRLQNKDHPFGNVIQETFQGHLMVDVFSKLLELRSDKISTLEEIISHVKTIPYLTDFKDVEITTVLKHPAIMSYVEIYFPRLSQTFVEPFDNVELREREFNRYTNPLWLSPKVHTYLDLVKNHQTEITKTCNSNLPLNFKGYEGALRCLKSGVADLASSTSRPSVTRTLRDTDLSTGWVHLQRPPPSLPQRQVVEIDVNMDIAKVCNFGEVMNPVLVTAYNTSGSWRWNITKALMIAHQSVALPALFGEGTVMGKDYDMLLPIAPLNQSYQPFLGSKPLRSMEAIVKASSYDWFKDQTGICYGETYTNIVKQRNETCQAIVKDVTCVGTPRMKKISVGRFGAKQFKMIKMCSRPSKFVRKMADFQCDNGFGYLKPVITAVACECMLCEEMIEYNTSFTEDNMWSDVSNKYVLTGEQDIYRQIPIWGNNSYFYDHTLNKNFELGNHSIIVEHVQTVVVERPSPGILSQVNSEVDPEVQVQMDSASLTKTCETVWNGQSWLPERFQGYKTSGSCVVPETGANAKSRVDRFRQIMQRKQQLVDHHH
modifications: carbohydrate 5-6% (orcein assay) or 7-8% (anthrone test), several per cent glucosamine; sites not stated
- stoichiometry N (AUC [10]): 2
- stoichiometry N (AUC [11]): 8
